{
  "source": "patent US20030108992A1",
  "binders": {"B1": {"name": "p60 TNFR (endogenous), P19438 30-455 (receptor, UniProt P19438 30-455, looked up)", "chain": "LVPHLGDREKRDSVCPQGKYIHPQNNSICCTKCHKGTYLYNDCPGPGQDTDCRECESGSFTASENHLRHCLSCSKCRKEMGQVEISSCTVDRDTVCGCRKNQYRHYWSENLFQCFNCSLCLNGTVHLSCQEKQNTVCTCHAGFFLRENECVSCSNCKKSLECTKLCLPQIENVKGTEDSGTTVLLPLVIFFGLCLLSLLFIGLMYRYQRWKSKLYSIVCGKSTPEKEGELEGTTTKPLAPNPSFSPTPGFTPTLGFSPVPSSTFTSSSTYTPGDCPNFAAPRREVAPPYQGADPILATALASDPIPNPLQKWEDSAHKPQSLDTDDPATLYAVVENVPPLRWKEFVRRLGLSDHEIDRLELQNGRCLREAQYSMLATWRRRTPRREATLELLGRVLRDMDLLGCLEDIEEALCGPAALPPAPSLLR"}, "B2": {"name": "Fas with the death domain, CFP and YFP fusions, P25445 26-335 (receptor, human, UniProt P25445 26-335, looked up, not shown: large carriers)", "chain": "QVTDINSKGLELRKTVTTVETQNLEGLHHDGQFCHKPCPPGERKARDCTVNGDEPDCVPCQEGKEYTDKAHFSSKCRRCRLCDEGHGLEVEINCTRTQNTKCRCKPNFFCNSTVCEHCDPCTKCEHGIIKECTLTSNTKCKEEGSRSNLGWLCLLLLPIPLIVWVKRKEVQKTCRKHRKENQGSHESPTLNPETVAINLSDVDLSKYITTIAGVMTLSQVKGFVRKNGVNEAKIDEIKNDNVQDTAEQKVQLLRNWHQLHGKKEAYDTLIKDLKKANLCTLAEKIQTIILKDITSDSENSNFRNEIQSLV"}, "B3": {"name": "Fas (endogenous, native receptor on T lymphoma cells), P25445 26-335 (receptor, UniProt P25445 26-335, looked up)", "chain": "B2 chain"}},
  "conditions_in_all_cases": "remark: other sources report otherwise",
  "key": {"[1]": {"molecular_target": "T1, p60 TNFR (endogenous), P19438", "T1 chain": "B1 chain", "assay": "DTSSP crosslinking of H9 cells with or without TNFα, non-reducing Western blot"}, "[2]": {"molecular_target": "T2, Fas with the death domain, CFP and YFP fusions (human), P25445", "T2 chain": "B2 chain", "assay": "CFP dequenching after YFP photobleaching, fluorescence microscope"}, "[3]": {"molecular_target": "T3, Fas (endogenous, native receptor on T lymphoma cells), P25445", "T3 chain": "B2 chain", "assay": "DTSSP crosslinking of H9 lymphoma cells, anti-Fas Western blot of deglycosylated lysates"}},
  "data": [
    {"binder": "B1", "values": [
      {"measurement": "percent of chains cross-linked as apparent trimers and higher order complexes", "setting": "[1]", "result": "15 to 20", "unit": "%"}
    ]},
    {"binder": "B2", "values": [
      {"measurement": "FRET efficiency", "setting": "[2]", "result": 27, "unit": "%"}
    ]},
    {"binder": "B3", "values": [
      {"measurement": "percent of chains cross-linked as trimers (densitometry)", "setting": "[3]", "result": 60, "unit": "%"}
    ]}
  ]
}
